Source: patent US20100041597A1 (published 2010)

Tests used:
PKC-α (purified isoform) = biological target: T1, PKC-α (purified isoform) (Homo sapiens (Human), UniProt P17252 2-672); assay: competitive ELISA on purified PKC-α vs anti-PKC-α Ab; PRE 50 µM
T1 construct: also called PKC-alpha; PKCalpha
Method: Greiner 96 well ELISA plates were coated with the appropriate PKC isoform diluted in PBSN (PBS with Calcium/Magnesium+0.05% Sodium azide w/w). 50 μL/well at 250 ng/mL was used. Control wells contained PBSN only. Plates were incubated overnight at 4° C.
The plates were washed 3 times with 200 μL of dH₂O per well, then 100 μL of blocking solution was added per well and the plate incubated for 1 h at 37° C. The washing steps with dH₂O were repeated and 50 μL of the appropriate PRE solution (PRE stock solution [20 mM in DMSO] diluted in PBSN) was added and the plate incubated for 1 h at room temperature.
50 μL of 1:1000 dilution of Alkaline Phosphatase (AP) conjugated antibody (anti-rabbit for all except zeta, which was anti-goat) was then added and the plate incubated for 1 h at room temperature. Washing with dH₂O was then repeated. Finally, 100 μL of pNPP solution in pNPP buffer (2 mM MgCl₂, 100 mM Sodium bicarbonate in water, pH 9.8) was added to all wells and incubated for 8 minutes for α, βI, βII ε, and ζ, or for 15-20 mins for […] (until sufficient coloration is observed). The reaction was stopped by addition of Stop solution (2N NaOH) and the absorbance at 405 nm was read on a Galaxy Plate reader.

PKC-ζ (purified isoform) = biological target: T2, PKC-ζ (purified isoform) (Homo sapiens (Human), UniProt Q05513 1-592); assay: summary grade, purified isoform ELISA
T2 construct: also called PKC-zeta; PKCzeta
T2 sequence: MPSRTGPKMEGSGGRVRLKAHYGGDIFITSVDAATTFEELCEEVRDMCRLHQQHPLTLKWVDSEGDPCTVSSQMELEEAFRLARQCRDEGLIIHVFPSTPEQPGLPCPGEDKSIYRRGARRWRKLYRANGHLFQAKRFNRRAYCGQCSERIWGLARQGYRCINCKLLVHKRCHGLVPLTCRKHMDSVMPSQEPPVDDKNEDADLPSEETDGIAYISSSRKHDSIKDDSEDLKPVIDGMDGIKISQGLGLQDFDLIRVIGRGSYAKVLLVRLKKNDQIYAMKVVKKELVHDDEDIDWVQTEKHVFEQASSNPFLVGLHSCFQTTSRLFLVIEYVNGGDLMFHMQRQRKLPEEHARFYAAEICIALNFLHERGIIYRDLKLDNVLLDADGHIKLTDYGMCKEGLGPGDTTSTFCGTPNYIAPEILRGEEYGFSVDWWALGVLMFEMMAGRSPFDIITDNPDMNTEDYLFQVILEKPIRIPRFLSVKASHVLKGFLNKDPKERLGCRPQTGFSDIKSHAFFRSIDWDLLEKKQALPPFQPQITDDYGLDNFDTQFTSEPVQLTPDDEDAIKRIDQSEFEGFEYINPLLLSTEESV

[1] = biological target: T3, PKC-ε (endogenous, human cell extracts) (human, UniProt Q02156 1-737); assay: Protocol B blot competition, IMR-32 extract, competitor anti-PKC-ε Ab, Band 2; PRE 50 µg
T3 construct: Two bands on the blot, said to be alternate splicing variants; also called PKC-epsilon; PKC-ε Band 1
T3 sequence (looked up): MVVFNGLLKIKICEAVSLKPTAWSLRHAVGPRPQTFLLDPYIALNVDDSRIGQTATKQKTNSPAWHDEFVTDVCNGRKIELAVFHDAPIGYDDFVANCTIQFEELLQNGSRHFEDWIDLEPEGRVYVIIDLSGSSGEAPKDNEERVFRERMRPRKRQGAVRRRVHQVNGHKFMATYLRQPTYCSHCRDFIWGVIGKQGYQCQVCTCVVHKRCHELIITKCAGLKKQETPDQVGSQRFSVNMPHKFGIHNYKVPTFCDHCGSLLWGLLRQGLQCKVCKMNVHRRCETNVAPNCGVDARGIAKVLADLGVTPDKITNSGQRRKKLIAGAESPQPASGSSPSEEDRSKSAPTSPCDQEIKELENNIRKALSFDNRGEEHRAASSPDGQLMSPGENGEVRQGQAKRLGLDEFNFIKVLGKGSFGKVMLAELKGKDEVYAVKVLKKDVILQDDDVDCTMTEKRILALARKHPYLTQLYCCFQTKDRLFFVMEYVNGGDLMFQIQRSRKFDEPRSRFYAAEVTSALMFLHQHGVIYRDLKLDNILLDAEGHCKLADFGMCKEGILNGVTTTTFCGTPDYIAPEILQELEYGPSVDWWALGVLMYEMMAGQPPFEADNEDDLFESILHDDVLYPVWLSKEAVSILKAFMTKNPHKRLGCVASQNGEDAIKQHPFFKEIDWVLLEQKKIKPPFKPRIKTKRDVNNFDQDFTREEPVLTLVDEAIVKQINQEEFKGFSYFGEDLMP
Method: (§1) The ability of the peptides PRE 2 and PRE 3 (see Table 3) to interfere with the binding of a PKC-α-specific polyclonal antibody (Santa Cruz Biotechnology, Inc.) to PKC-α was determined using a modified version of the protocol outlined above in which the test peptide was added directly to the cell extract prior to electrophoresis at a concentration of either 5× or 15× the concentration of the protein applied to each well of the gel for the Western blots (20 μg).
(§2) Peptides PRE 2, PRE 3 and PRE 4 (see Table 3) were tested for their ability to interfere with the binding of isoform-specific polyclonal antibodies (Santa Cruz Biotechnology, Inc.) to PKC-ε using the general protocol described in Example 3. Two bands, representing alternate splicing variants of PKC-ε, were identified on the Western blot using this anti-PKC-ε antibody.

[2] = biological target: T3, PKC-ε (endogenous, human cell extracts); assay: Protocol B blot competition, IMR-32 extract, competitor anti-PKC-ε Ab, Band 1; PRE 20 µg
Method: as §1, §2

[3] = biological target: T3, PKC-ε (endogenous, human cell extracts); assay: Protocol B blot competition, IMR-32 extract, competitor anti-PKC-ε Ab, Band 1; PRE 50 µg
Method: as §1, §2

[4] = biological target: T3, PKC-ε (endogenous, human cell extracts); assay: Protocol B blot competition, IMR-32 extract, competitor anti-PKC-ε Ab, Band 1; PRE 100 µg
Method: as §1, §2

[5] = biological target: T3, PKC-ε (endogenous, human cell extracts); assay: Protocol B blot competition, IMR-32 extract, competitor anti-PKC-ε Ab, Band 2; PRE 100 µg
Method: as §1, §2

B1: PRE 12 (peptide)
peptide: Ac-KDAQNLI-NH2
notes: Synthetic peptide; also called peptide PRE 12; Ac-KDAQNLI-NH2
- binding capacity (%) (PKC-α (purified isoform)): 3.29%

B2: PRE 13 (peptide)
peptide: Ac-RDAQNLI-NH2
notes: Synthetic peptide; also called peptide PRE 13; Ac-RDAQNLI-NH2
- binding result (PKC-ζ (purified isoform)): no binding (tested: 200 µM)

B3: PRE 4 (peptide)
peptide: Ac-KDAQNLIGISI-NH2
notes: Synthetic peptide; also called peptide PRE 4
- band intensity [1]: 0
- inhibition (%) [1]: 100%
- relative intensity (%) [1]: 0%
- band intensity [2]: 184
- inhibition (%) [2]: 42.9%
- relative intensity (%) [2]: 57.1%
- band intensity [3]: 0
- inhibition (%) [3]: 100%
- relative intensity (%) [3]: 0%
- band intensity [4]: 0
- inhibition (%) [4]: 100%
- relative intensity (%) [4]: 0%
- band intensity [5]: 0
- inhibition (%) [5]: 100%
- relative intensity (%) [5]: 0%
- binding capacity (%) (PKC-α (purified isoform)): 6.46%

B4: PRE 11 (peptide)
peptide: Ac-RDAQNLIGISI-NH2
notes: Synthetic peptide; also called peptide PRE 11
- binding result (PKC-ζ (purified isoform)): no binding (tested: 200 µM)
- binding capacity (%) (PKC-α (purified isoform)): 0%

B5: PRE 3 (peptide)
peptide: Ac-AKGIQEVKGGDAQNLIGISI-NH2
notes: Synthetic peptide; also called peptide PRE 3
- band intensity [1]: 0
- inhibition (%) [1]: 100%
- relative intensity (%) [1]: 0%
- band intensity [2]: 5.12
- inhibition (%) [2]: 99%
- relative intensity (%) [2]: 0.12%
- band intensity [3]: 0
- inhibition (%) [3]: 100%
- relative intensity (%) [3]: 0%
- band intensity [4]: 0
- inhibition (%) [4]: 100%
- relative intensity (%) [4]: 0%
- band intensity [5]: 0
- inhibition (%) [5]: 100%
- relative intensity (%) [5]: 0%
- binding capacity (%) (PKC-α (purified isoform)): 17.5%

B6: PRE 6 (peptide)
peptide: Ac-KDANQLIGISI-NH2
notes: Synthetic peptide; also called peptide PRE 6
- binding result (PKC-ζ (purified isoform)): no binding (tested: 200 µM)

B7: PRE 7 (peptide)
peptide: Ac-ISIGILQNADK-NH2
notes: Synthetic peptide (retro form of PRE 4); also called peptide PRE 7
- binding capacity (%) (PKC-α (purified isoform)): 0%
